Laboratory results reported in paper PMC12903857 (Journal of the American Chemical Society, 2026).
Non-standard residues stand in square brackets, D forms with d. No end group written: not given here. pS = N[C@@H](COP(=O)(O)O)C(=O)O

Tests used:
14-3-3σ = target: T1, 14-3-3σ (UniProt P31947 1-248); assay: fluorescence polarisation; fluorescence anisotropy protein titration: 14-3-3σ titrated into 10 nM labeled peptide in the presence of DMSO; apparent; conditions: both partners purified
T1 construct: 14-3-3σ (sigma isoform of 14-3-3, SFN), the protein titrated in the fluorescence anisotropy assays; With the covalent compounds of the FA assays C38 becomes modified in the sample; also called sigma isoform
T1 sequence (looked up): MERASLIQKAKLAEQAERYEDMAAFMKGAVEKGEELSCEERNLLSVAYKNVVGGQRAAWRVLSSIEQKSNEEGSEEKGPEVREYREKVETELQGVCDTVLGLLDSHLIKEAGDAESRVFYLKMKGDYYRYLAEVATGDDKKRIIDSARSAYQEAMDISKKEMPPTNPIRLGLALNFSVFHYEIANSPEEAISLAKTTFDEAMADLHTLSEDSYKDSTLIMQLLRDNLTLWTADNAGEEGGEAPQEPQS

[1] = target: T2, C-RAF-NanoLuciferase (Nluc) (UniProt P04049 1-648); assay: FRET or BRET; NanoBRET in HEK293T cells: RAF tagged with NanoLuciferase, 14-3-3σ with HaloTag/fluorescent HaloTag ligand; dose responses of compounds against DMSO; conditions: partners not purified
T2 construct: C-RAF, full-length RAF client of the cell assays; source: HEK293T, transfected, in cells

B-RAF (NanoBRET fusion) = target: T3, B-RAF (NanoBRET fusion) (UniProt P15056 1-766); assay: as above; conditions: partners not purified
T3 construct: B-RAF, full-length RAF client of the cell assays; Used in the 14-3-3σ/B-RAF and the B-RAF/C-RAF NanoBRET assays; the fusion partner may differ between them; The cell line is told for the first NanoBRET assays only; source: HEK293T, transfected, in cells; not shown: NanoLuciferase or HaloTag (from the NanoBRET method)

A-RAF (NanoBRET fusion) = target: T4, A-RAF (NanoBRET fusion) (UniProt P10398 1-606); assay: as above; conditions: partners not purified
T4 construct: A-RAF, full-length RAF client of the cell assays; Used in the 14-3-3σ/A-RAF and the A-RAF/C-RAF NanoBRET assays; the fusion partner may differ between them; The cell line is told for the first NanoBRET assays only; source: HEK293T, transfected, in cells; not shown: NanoLuciferase or HaloTag (from the NanoBRET method)

T3 sequence (P15056 whole entry, the tested form may be a part): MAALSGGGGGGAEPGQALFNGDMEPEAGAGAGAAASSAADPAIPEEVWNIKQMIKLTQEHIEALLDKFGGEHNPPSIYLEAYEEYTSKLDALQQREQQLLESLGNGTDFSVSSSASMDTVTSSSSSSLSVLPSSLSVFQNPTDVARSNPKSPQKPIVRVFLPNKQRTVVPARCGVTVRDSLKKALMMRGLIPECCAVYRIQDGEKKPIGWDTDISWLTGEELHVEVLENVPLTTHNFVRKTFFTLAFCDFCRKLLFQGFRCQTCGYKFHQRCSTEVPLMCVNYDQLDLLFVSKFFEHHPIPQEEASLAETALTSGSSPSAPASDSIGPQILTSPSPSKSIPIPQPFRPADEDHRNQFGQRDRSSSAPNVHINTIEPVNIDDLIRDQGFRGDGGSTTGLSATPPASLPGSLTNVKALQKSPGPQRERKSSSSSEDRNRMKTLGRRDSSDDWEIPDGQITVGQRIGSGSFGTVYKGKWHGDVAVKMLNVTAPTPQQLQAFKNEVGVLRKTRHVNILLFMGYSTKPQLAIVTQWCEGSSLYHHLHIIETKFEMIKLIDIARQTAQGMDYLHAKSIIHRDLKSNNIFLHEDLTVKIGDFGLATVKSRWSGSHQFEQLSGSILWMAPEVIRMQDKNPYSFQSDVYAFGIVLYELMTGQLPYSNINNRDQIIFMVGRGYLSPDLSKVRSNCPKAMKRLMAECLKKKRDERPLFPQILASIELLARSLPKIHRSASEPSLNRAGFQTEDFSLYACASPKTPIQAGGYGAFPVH

In the case of QRST[pS]TPNVH (also: FAM label, site not given here) [FAM-labeled C-RAF259 peptide (10-mer)], the Kd (14-3-3σ) is reported as 8.43 µM.

B1: 14-3-3σ-Halotag (HT) (natural protein, UniProt P31947 1-248, looked up)
chain: MERASLIQKAKLAEQAERYEDMAAFMKGAVEKGEELSCEERNLLSVAYKNVVGGQRAAWRVLSSIEQKSNEEGSEEKGPEVREYREKVETELQGVCDTVLGLLDSHLIKEAGDAESRVFYLKMKGDYYRYLAEVATGDDKKRIIDSARSAYQEAMDISKKEMPPTNPIRLGLALNFSVFHYEIANSPEEAISLAKTTFDEAMADLHTLSEDSYKDSTLIMQLLRDNLTLWTADNAGEEGGEAPQEPQS
modifications: fluorescent HaloTag ligand on the HaloTag
notes: 14-3-3σ, full length, for NanoBRET; also called full-length 14-3-3σ; source: HEK293T, transfected, in cells
B1 was tested, and the “fold stabilization (BRET signal) with 22 against DMSO” value [1] was 1.5 fold, the “fold stabilization (BRET signal) with 23 against DMSO” value [1] was 1.6 fold and the “fold stabilization (BRET signal) with 70 against DMSO” value [1] was 1.3 fold. The “fold stabilization (BRET signal) with 78 against DMSO” value [1] was 1.4 fold, the “fold increase (BRET signal) with 22” value (B-RAF (NanoBRET fusion)) was 1.4 fold and the “fold increase (BRET signal) with 23” value (B-RAF (NanoBRET fusion)) was 1.4 fold. For the same binder, the “fold increase (BRET signal) with 10 μM 22” value (A-RAF (NanoBRET fusion)) was 1.6 fold and the “fold increase (BRET signal) with 10 μM 23” value (A-RAF (NanoBRET fusion)) was 1.7 fold.
